Source: US20200332017A1 (SALUBRIS CHENGDU BIOTECH, published 2020)

Tests used:
[1] = molecular target: T1, Human CD40-his protein (Acro biosystems, Cat # CD0-H5228) (human, UniProt P25942 21-193); test: SPR, Biacore; antibody captured, human CD40-his flowed
T1 construct: Bought reagent; not shown: his tag
Source text: Briefly, goat anti-mouse IgG (GE healthcare, Cat # BR100838, Mouse Antibody Capture Kit) was covalently linked to a CM5 or a Protein G chip (carboxy methyl dextran coated chip) via primary amines, using a standard amine coupling kit provided by Biacore (GE healthcare, Pittsburgh, Pa., USA). Un-reacted moieties on the biosensor surface were blocked with ethanolamine. […] Then, human CD40-his (Acro biosystems, Cat # CD0-H5228) or cynomolgus monkey CD40-his protein (Acro biosystems, Cat # CD0-052H6) in HBS EP buffer (provided by Biacore) was flowed onto the chip at a flow rate of 30 μL/min. The antigen-antibody association kinetics was followed for 2 minutes and the dissociation kinetics was followed for 10 minutes. The association and dissociation curves were fit to a 1:1 Langmuir binding model using BIA evaluation software.

[2] = molecular target: T2, human CD40-Fc protein (amino acid residue 21-193 of SEQ ID NO: 67 linked to N-terminus of amino acid residue … (human, biotin-labeled in the capture ELISA and in the benchmark blocking ELISA; unlabeled when coated in the ligand blocking ELISA); test: capture ELISA, biotin human CD40-Fc; mAb at 16 ng/mL
T2 construct: also called biotin-labeled human CD40-Fc; human CD40-Fc-biotin
Protocol: (§1) Plates were washed 4 times with wash buffer (PBS+0.05% Tween-20, PBST) and then blocked with 200 μl/well blocking buffer (5% w/v non-fatty milk in PBST) for 2 hours at 37° C. […] After a final wash, plates were incubated with 100 μl/well ELISA substrate TMB (Innoreagents, Cat # TMB-S-002). The reaction was stopped in 15 minutes at 25° C. with 50 μl/well 1M H₂SO₄, and the absorbance was read at 450 nm and plotted against antibody concentration. Data were analyzed using Graphpad Prism software and EC₅₀ values were reported.

[3] = molecular target: T2, human CD40-Fc protein (amino acid …); test: capture ELISA, biotin human CD40-Fc; mAb at 80 ng/mL
Protocol: as §1

[4] = molecular target: T2, human CD40-Fc protein (amino acid …); test: capture ELISA, biotin human CD40-Fc; mAb at 3.2 ng/mL
Protocol: as §1

[5] = molecular target: T2, human CD40-Fc protein (amino acid …); test: capture ELISA, biotin human CD40-Fc; mAb at 400 ng/mL
Protocol: as §1

[6] = molecular target: T2, human CD40-Fc protein (amino acid …); test: capture ELISA, biotin human CD40-Fc; mAb at 0.64 ng/mL
Protocol: as §1

[7] = molecular target: T2, human CD40-Fc protein (amino acid …); test: capture ELISA, biotin human CD40-Fc; mAb at 2000 ng/mL
Protocol: as §1

[8] = molecular target: T2, human CD40-Fc protein (amino acid …); test: capture ELISA, biotin human CD40-Fc; mAb at 10000 ng/mL
Protocol: as §1

[9] = molecular target: T2, human CD40-Fc protein (amino acid …); test: capture ELISA, biotin human CD40-Fc; mAb at 0 ng/mL (blank)
Protocol: as §1

[10] = molecular target: T2, human CD40-Fc protein (amino acid …); test: capture ELISA; antibody captured, biotin-labeled human CD40-Fc in solution
Protocol: as §1

T1 sequence (P25942 21-193 limits assumed): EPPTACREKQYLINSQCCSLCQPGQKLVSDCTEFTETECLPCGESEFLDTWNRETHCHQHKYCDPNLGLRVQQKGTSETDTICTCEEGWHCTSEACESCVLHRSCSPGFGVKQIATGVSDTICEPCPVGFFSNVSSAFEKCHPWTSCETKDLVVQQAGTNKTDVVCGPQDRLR
T2 sequence (chain, as listed by the source): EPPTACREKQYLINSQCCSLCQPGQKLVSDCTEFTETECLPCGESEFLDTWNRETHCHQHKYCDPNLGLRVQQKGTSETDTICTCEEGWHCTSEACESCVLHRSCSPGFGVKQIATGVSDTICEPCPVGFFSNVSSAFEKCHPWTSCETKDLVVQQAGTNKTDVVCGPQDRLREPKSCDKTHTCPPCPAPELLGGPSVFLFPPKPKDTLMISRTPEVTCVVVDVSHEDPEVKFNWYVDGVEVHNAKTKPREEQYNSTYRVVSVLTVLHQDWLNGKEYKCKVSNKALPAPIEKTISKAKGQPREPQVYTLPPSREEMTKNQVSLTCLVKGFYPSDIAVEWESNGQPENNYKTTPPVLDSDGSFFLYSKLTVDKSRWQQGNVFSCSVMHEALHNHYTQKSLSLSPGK

Binder	Kd [1] [nM]	koff [1] [s⁻¹]	kon [1] [M⁻¹ s⁻¹]	absorbance at 450 nm [2] [OD450]	absorbance at 450 nm [3] [OD450]	absorbance at 450 nm [4] [OD450]	absorbance at 450 nm [5] [OD450]	absorbance at 450 nm [6] [OD450]	absorbance at 450 nm [7] [OD450]	absorbance at 450 nm [8] [OD450]	absorbance at 450 nm [9] [OD450]	EC50 [10] [ng/mL]
humanized antibody huC1C1-V1 (antibody, human IgG1, kappa, V domains shown, Human IgG1/kappa; also called humanized C1C1-V1) VH: EVQLVESGGGVVQPGRSLRLSCAASGFTFSNYGMSWVRQAPGKGLEWVASISSGGDDTYYPDNVKGRCTISRDNSKNTLYLQMNSLRAEDTAVYYCTRAGGKAMDYWGQGTLVTVSS VL: EIVLTQSPATLSLSPGERATLSCRASQSIRDNLHWYQQKPGQSPRLLINYASQSISGIPARFSGSGSGTDFTLTISSLEPEDFAVYFCQQFNSWPLTFGQGTKVEIKR	–	–	–	0.353	1.12	0.083	1.73	0.035	1.78	1.9	0.028	0.382
humanized antibody huC1C1-V2 (antibody, human IgG1, kappa, V domains shown, Human IgG1/kappa) VH: EVQLVESGGGVVQPGRSLRLSCAASGFTFSNYGMSWVRQAPGKGLEWVASISSGGDDTYYPDNVKGRFTISRDNSKNTLYLQMNSLRAEDTAVYYCTRAGGKAMDYWGQGTLVTVSS VL: EIVLTQSPATLSLSPGERATLSCRASQSIRDNLHWYQQKPGQSPRLLINYASQSISGIPARFSGSGSGTDFTLTISSLEPEDFAVYFCQQFNSWPLTFGQGTKVEIKR	–	–	–	0.3	1.02	0.073	1.62	0.029	1.72	1.82	0.027	0.428

Next, values leading:

Kd [1] [nM]	koff [1] [s⁻¹]	kon [1] [M⁻¹ s⁻¹]	absorbance at 450 nm [2] [OD450]	absorbance at 450 nm [3] [OD450]	absorbance at 450 nm [4] [OD450]	absorbance at 450 nm [5] [OD450]	absorbance at 450 nm [6] [OD450]	absorbance at 450 nm [7] [OD450]	absorbance at 450 nm [8] [OD450]	absorbance at 450 nm [9] [OD450]	EC50 [10] [ng/mL]	Binder
11.6	0.00881	763000	–	–	–	–	–	–	–	–	–	humanized antibody huC1C1-V6 (antibody, human IgG1, kappa, V domains shown, Human IgG1/kappa) VH: EVQLVESGGGVVQPGRSLRLSCAASGFTFSNYGMSWVRQAPGKGLEWVASISSGGDDTYYPDNVKGRCTISRDNSKNTLYLQMNSLRAEDTAVYYCTRAGGKAMDYWGQGTLVTVSS VL: EIVLTQSPATLSLSPGERATLSCRASQSIRDNLHWYQQKPGQAPRLLIYYASQSISGIPARFSGSGSGTDFTLTISSLEPEDFAVYYCQQFNSWPLTFGQGTKVEIKR
–	–	–	0.357	1.15	0.083	1.72	0.032	1.71	1.8	0.024	0.336	humanized antibody huC1C1-V3 (antibody, human IgG1, kappa, V domains shown, Human IgG1/kappa) VH: EVQLVESGGGVVQPGRSLRLSCAASGFTFSNYGMSWVRQAPGKGLEWVASISSGGDDTYYPDNVKGRCTISRDNSKNTLYLQMNSLRAEDTAVYYCTRAGGKAMDYWGQGTLVTVSS VL: EIVLTQSPATLSLSPGERATLSCRASQSIRDNLHWYQQKPGQAPRLLINYASQSISGIPARFSGSGSGTDFTLTISSLEPEDFAVYFCQQFNSWPLTFGQGTKVEIKR
–	–	–	0.34	1.1	0.083	1.66	0.033	1.68	1.77	0.027	0.355	humanized antibody huC1C1-V5 (antibody, human IgG1, kappa, V domains shown, Human IgG1/kappa; also called humanized C1C1-V5) VH: EVQLVESGGGVVQPGRSLRLSCAASGFTFSNYGMSWVRQAPGKGLEWVASISSGGDDTYYPDNVKGRCTISRDNSKNTLYLQMNSLRAEDTAVYYCTRAGGKAMDYWGQGTLVTVSS VL: EIVLTQSPATLSLSPGERATLSCRASQSIRDNLHWYQQKPGQSPRLLINYASQSISGIPARFSGSGSGTDFTLTISSLEPEDFAVYYCQQFNSWPLTFGQGTKVEIKR
–	–	–	0.459	1.25	0.103	1.63	0.039	1.7	1.84	0.025	0.267	humanized antibody huC1C1-V4 (antibody, human IgG1, kappa, V domains shown, Human IgG1/kappa) VH: EVQLVESGGGVVQPGRSLRLSCAASGFTFSNYGMSWVRQAPGKGLEWVASISSGGDDTYYPDNVKGRCTISRDNSKNTLYLQMNSLRAEDTAVYYCTRAGGKAMDYWGQGTLVTVSS VL: EIVLTQSPATLSLSPGERATLSCRASQSIRDNLHWYQQKPGQSPRLLIYYASQSISGIPARFSGSGSGTDFTLTISSLEPEDFAVYFCQQFNSWPLTFGQGTKVEIKR
